According to doi:10.1101/2021.04.07.438849 (bioRxiv, 2021):

Target: T1, NTD of the SARS-CoV-2 spike protein (SARS-CoV-2 Wuhan-Hu-1, UniProt P0DTC2)
T1 construct: also called N-terminal domain
Experiment: ELISA
Conditions: both partners purified

B1: 8–131 (antibody, V domains shown)
VH: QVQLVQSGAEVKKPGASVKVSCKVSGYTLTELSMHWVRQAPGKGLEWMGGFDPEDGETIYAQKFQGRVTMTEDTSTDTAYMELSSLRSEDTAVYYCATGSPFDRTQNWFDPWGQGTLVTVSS
VL: QSVVTQPPSVSAAPGQKVTISCSGSRSNIGNNYVSWYQQLPGTAPKLLIYDYDKRPSGIPDRFSGSKSGTSATLGITGLQTGDEADYYCGTWDNSLSAGVFGGGTRLTVL
  binding result: binds
